In the supplement of paper PMC11502859:
Where “and” joins values, the source holds several entries; their conditions need not be identical. Equal entries are not always repeated.

Tested on: HEK293T
Test: median enrichment of reporter reads in eGFP-reduced (low/intermediate) vs eGFP-high sorted cells (eGFP-extension fusion abundance) (ratio); higher = stronger loss of eGFP-fusion protein abundance (more destabilising extension)
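Further: lentiviral eGFP-IRES-mCherry reporter pool sorted by FACS 96 h post-transduction, gated on mCherry-high cells, Illumina read counts normalized per million, median across four biological replicates.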

| Substance | median enrichment |
| --- | --- |
| GQRQRVLPKPLLPLWMLSLTLTHHCASLQTPRAQDWARPRDSHPFPSWEELACLATDSVSSNWLKWALPRVQLCGFYHA [IQGAP3] | 15.7 |
| SWHSSPHTCSQAQMEVP [ACTL6B] | 0.404 |
| YMSEVQTLKKLAF [SLC7A13] | 4.37 |
| SDEHG [TMEM242] | 1.05 |
| RDRALRCQGENPSSNPGYLETEKLEF [ITLN2] | 0.166 |
| YASHLASWVCRSSRLAPSMYPGEIPARHPPPGPG [LSP1] | 4.74 |
| QGHACAPMGFLFSFFFFLVGGVGGLD [PRKACA] | 5.49 |
| LLLLLLLLL [Leu09] | 11.2 |
| LFCCCIYTSKGPDLLLLKLFFKTWNYKEIRSSITFDTNFYRN [TTC13] | 5.88 |
| QPPARQRGHRRASPECRPWVAGPGSLVPPGGHRHRLAWQAGPLCHPLLGACRPFPSTPQVFQALLPQFPKWNHLTSAAPDLPG [SECTM1] | 4.68 |
| RKFLLNISVGSCYQNFGYDFLGSVYFGCILNYGNGIYLLLTVNLFF [CCDC181] | 5.89 |
| CVETCAPRRGAAVREGLCTAAPATDPVRKYLLGASPGLGLGMRWSPGLSFLSTQWVILASTCRAPCQALPTHLPV [OLFML2A] | 7.4 |
| CRFLLKLTLFHLSF [VHL] | 24.3 and 30.2 |
| LEKPQVLLRLLSLPCQVSPVLTIQLGSTPFALLPCHTVLCLLFQVGMIMPSPANILQGPPNLIAGHSQPSESESRFLLSLPSS [PGLYRP4] | 7.65 |
| SEMMSCPGPMATRTLQATLLCDQARIPGAGLRGLNGPSGTQVGLSTLSPTTQPTALK [TMEM54] | 0.763 |
| SVHQLPAPALAPTPSSLKHPPAHCGQLCATRAHGAPPVL [BAIAP3] | 1.3 |
| YLSNH [WDR27] | 3.24 |
| RSNFSFTVLSCLHRKSQYNFHC [SEC23IP] | 2.62 |
| AGAQPLPGMRLSADGETATQSFGLCVCVCVCVCVCAHPRVPVCVRILPPGAEVPWVSPLLCNGLLTGAAAPRGLCSGGTQCRM [FGFR3] | 6.29 |
| QLSLPPQPGSPALESSVLHAEDAPSLDWSGLLPNDIAQRLWSRHPAEWGPRGCQLGALPLAATLWSGRVLHHQEDPILSSVSC [INAFM1] | 4.8 |
| LWLSCLQYLNFKSKSIY [IFNG] | 13.2 |
| RTQTPQSSRLALLRLRGPQKSPPK [TSGA13] | 9.36 |
| CLGVKAFHGHPCTGYLLVMLQNVSPTLCPSLALLPQSP [TEX35] | 11.2 |

| Substance | median enrichment |
| --- | --- |
| YTAQGSPTQAPTLLLLALLPASVQRTGRYWWEALCLAPQLPVWASKHNGPSRSLVETGVVVPNLPSALPLHRTQRPQALQGVL [AMIGO3] | 8.02 |
| GVWLSHGIPGKGLTQ [PTPA] | 2.08 |
| SETEASLFHSPS [EPB41L4B] | 0.374 |
| QKKPL [NFATC2] | 0.453 |
| YHCESITFSLSCSWTFCTENPGI [CREBBP] | 33.7 |
| WGNKRKLSPESATSAPSIFSINALYQPQSSLFKLTPC [ZNF474] | 8.63 |
| KLQC [OR4C6] | 0.547 |
| PWTWYTSMWSCWARGVLCAVNSVGSCSGVGARFLPPWAEGPFPLVLCPHPPPFSCSWASALPRASQVLLGREGNGEKGEASSV [KLHDC3] | 6.21 |
| YSQERWKQVTSTIA [OR5K1] | 7.21 |
| RRKCLLPW [PKD1L2] | 1.93 |
| REKGNAQERNTVSPISDLDSTGYMEEI [OR8B8] | 0.597 |
| LVRIFNIFQKCIYIVLLCFFHCTL [SLC39A12] | 9.98 |
| SQAGMSPGSLARVGPQ [TXN2] | 0.38 |
| LAWN [CLRN1] | 0.652 |
| WSILQDLPEAA [PCDH10] | 9.03 |
| STFKAFVK [GATA1] | 0.381 |
| LKPPSAGDPDKMAP [KRTAP1-1] | 0.285 |
| EFK [BBS9] | 0.267 |
| RSGLFQ [IQCF1] | 0.394 |
| MMMMMMM [Met07] | 6.53 |
| RACQEVTTSLLPAAWARTALRFEGNMDPFGPAGTGHIPHPRATMGVGNFLVCFLIYL [PLEKHH3] | 8.55 |
| RPWPRAQACLGWALPLTTQGGPGPLGFLPWGQQPPAGLVGSGFLDFLMKRGYL [KCNH4] | 4.41 |
| LCT [DUSP22] | 1.23 |

| Substance | median enrichment |
| --- | --- |
| SALTHAHAPLTLKRIHNSLEKHPHVCCRTHSSQLRPIPVTTASPPTPVTTASPPTPVTTASPPTALSPRPMSACPRAQDFLTG [SSH3] | 2.09 |
| EFLSHSPTSTTTGQLSPFPTL [RNASE13] | 0.565 |
| QFDNKAEGLSSNMVAFF [ACSM4] | 0.317 |
| SPRSWILQCINKRSQAGFISETIN [SGCD] | 39.2 |
| QGDL [DPYD] | 0.394 |
| WARTLNRTPVGPARTACSAGDGSDPWSSIAPHDIESRPVFALWEENGRESGQLSQSIRAGRT [ABCC6] | 7.78 |
| HLPIPASLARALLGPEQRRTCPTHTAIYSSRHRAPLPYSWSQQPGNGVALHWPLASTLSGAPAVGWGTPAKDQFGCLIPGAVT [CRHR2] | 3.84 |
| DDDDDD [Asp06] | 0.38 |
| FPPPPSSGSPRSNVPPATFPLWPPAELICLSHRSWCLPLHRSLNAATLAGSRWKLVEGPCQVTAMLSLSRHGPGSFRHIQILH [S100A7A] | 8.52 |
| YLL [TOR1AIP2] | 3.21 |
| WEDPPEE [IGF1] | 1.04 |
| RTRIPNYISTDAFHFNSS [SAMSN1] | 2.43 |
| SALGWSQGGTTQAPWAPRERGGIRAGQPPGCRCQEQSQAQVAPAACPVPFPKAPLHIEGRKREFRQLHSPFTPNPVFYSPEKR [STARD8] | 3.27 |
| YDGR [ZNF772] | 0.299 |
| YVAMVKVSVAAAAMASRRRCWDCFALEPASGCPLQWLCYCMDCILDFMCMSQ [DYNLL2] | 10.8 |
| LSFCLA [UTP3] | 8.65 |
| YDHSGQDHSGHGHGHSHGGHGHSH [S100A9] | 0.275 |
| RKDNSWKPQQFSIQGIYLRQIEYIL [ARL6] | 6.56 |
| KTNKMRSSLWSFNSLMQIKTQTSLQALAYYSCIKNFGWGDLGA [MTRNR2L7] | 7.22 |
| HFWGVTDFVHGFKVYFYGLVIAEFLFWGEGKGASPLLLALRPRRLLCAANCIYCDALVRAPLPTSPSQLWPQPLSLCCVEWTP [TSPYL2] | 8.4 |
| WGHRSEMRGLECGWAPGAMGGCGAGEIKSELLLPGVPTSSSGQSVHSQPDR [BCL2] | 5.52 |
| RGTAVPACSPHLGRGSLAAFSLRSRST [AGAP1] | 0.942 |
| RQWLSCDDRQNGGEICLWEVEP [FBXO45] | 6.14 |

| Substance | median enrichment |
| --- | --- |
| RAKPDGQHRHRHTPQGPTLLSFTVPWHIGERIYPSPGSPGHSVLSKTRMWYQLWKRKVSCQQYLLPSRQPSQVRHLLRSHREP [SPSB4] | 7.24 |
| QATPAWPRSQDTGQGRPGPEELGAGPQT [APBA2] | 0.312 |
| QTGRLDF [RPL24] | 0.466 |
| RLSTGPLHTISLIYVPSTLPQISGSGPGTWEGTGVRGCMGALAAPGSVVGRKLWKL [LRRC73] | 6.15 |
| WNR [ZC3HAV1] | 0.487 |
| GGGG [Gly04] | 5.17 |
| CLGKAGHKNLHEQYFFLNRMFYYSSQVLECLHTII [FAM24A] | 4.34 |
| RILSLIPATPLLISGGRTVSELFVSIGHLSLVVKDWLMITMHRKTFRRKGECFVDHFGFLFCVWQF [EEF1A1] | 5.71 |
| LSLTALPGANSGT [ANKZF1] | 1.24 |
| MALAVRVVYCGA [Degron KLHDC2] | 5.57 |
| WWWWWWW [Trp07] | 3.21 |
| WNEKYCGHLNNGLVSYNEMFSRILK [UGP2] | 3.44 |
| GCM [BET1] | 0.417 |
| RGGRWEPSFQ [OR6Q1] | 0.248 |
| YIAD [FUCA2] | 0.607 |
| LIGCMEK [BTN3A1] | 11.1 |
| RGDAVGLAEPRFSHQQGECWPDTSEDPGLVIICLGGTG [GMPPB] | 7.69 |
| YISHQKLRQEKQK [RASSF8] | 3.3 |
| KRGTGGRGRGVLHEMLMLSVISGESV [FAM98C] | 7.54 |
| YPTVGPGWAGRSWCVTGCPGRHVLALTVPGLSLPAAAIQEIVATVTLTSSAWFLPLPSGVDKGPLIIFSFVFL [DVL2] | 7.88 |
| QIKLAVRNAKSC [RBMX] | 6.47 |
| SAHQRAPSPRIAAPTQPGAPDPPGGLRGNRRREGKGPPSPSRPQGAATDWRAAEGGRARAPRGRTIRAPAPRPVPPQARA [TLX3] | 3.75 |
| KLICKIRNWTHIALFECEVR [RNF182] | 12.7 |

| Substance | median enrichment |
| --- | --- |
| WAV [GBA2] | 0.997 |
| QLLVPPSLLVIRFPRLTP [PITRM1] | 9.11 |
| RKTWPENPQVLQRKTELGKGESWKDGAD [ABHD15] | 1.61 |
| QAASWRFEDAAFGLDEFQILLACFLILICLYTYTLCTKLFLIHGLLNPQMWSPWIRKARCTLNDK [B2M] | 11.1 |
| PPPPPPPP [Pro08] | 1.83 |
| QGGDF [KIF16B] | 0.225 |
| YILNLVCRPSRGIKRLALVVKNKADSQTRSDFCPCSSFDVLSVALFLIASSTCKMLFTFCLG [DAB2] | 7.19 |
| KKNVEAIGLLGG [Degron KLHDC2] | 5.08 |
| FFFFFFFFF [Phe09] | 9.48 |
| ADLTPAQPPPPTSHSGLVLCLLFRTPLCPPKRQKKKKKKKSKKTSEKSAAKKWMSCNFSRDGAGGVCVPTGPGGPLRGGHAAR [PITX1] | 10 |
| SMLIP [ZMYND15] | 0.546 |
| SKILVLLNYLI [TIPARP] | 5.53 |
| QENKNCRK [MRPL13] | 0.366 |
| QCHLLSPTTP [PPY] | 0.404 |
| YRTGIHEQKAESQTCLS [CD5] | 0.587 |
| EDPGTQRLCPPRPQSVPITLTVLHTVHAPLLAFFREKENFTTGSH [SERTAD2] | 6.58 |
| CGGLPRRAKMAEMILKITEEREDQPEFPLDICVFLFFYFVLFFLLLLLP [SOX9] | 9.11 |
| YRSAVQENVMLGTPSSVVLASHASAAELAE [DEFA4] | 2.45 |
| YIWLFMHCGMCSSFSVFRYKVLYQSVIYKVYQHKCW [MLH1] | 23.5 |
| QTGQDPSTCTC [FCN1] | 0.258 |
| YKYTLTERDNRQRGSVAEDPLLCLY [TNIP3] | 7.19 |
| YNYLSPL [FAM104B] | 2.29 |
| YASRRRRRRGRAAGGTAQATQGRPLRPGGQGGRPASGDRLPPGLWQDVPSEGYFEEPPGPGDREAPVSSMNALPRTQARASGV [MSANTD1] | 1.01 |
